Measurements as given in US11306156.

molecular target: tissue factor (TF) antigen (UniProt P13726); test: SPR (ProteOn), Fab captured on anti-penta-His, TF as analyte, 1:1 fit
Sequence (P13726 33-251 limits assumed): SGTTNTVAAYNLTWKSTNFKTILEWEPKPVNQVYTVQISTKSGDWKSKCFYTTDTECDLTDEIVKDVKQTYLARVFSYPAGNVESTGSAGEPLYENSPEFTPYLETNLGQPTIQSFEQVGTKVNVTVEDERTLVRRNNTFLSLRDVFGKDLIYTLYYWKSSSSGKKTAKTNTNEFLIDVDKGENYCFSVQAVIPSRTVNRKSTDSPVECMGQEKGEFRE

Row | Substance | Change in KD with respect to wild type (-(log(KD design) - log(KD wt))) | Kd [pM]
1 | D3H44 Fab heterodimer, H L143E_K145T / L Q124R | -0.25 | 280
2 | D3H44 Fab heterodimer, H S186K / L Q124E_S131T_T178F_T180E | -0.03 | 170
3 | D3H44 Fab heterodimer, H Q179K / L Q124E_T178E_T180E | 0.1 | 130
4 | D3H44 Fab heterodimer, H Q179R / L Q124E_S131T_T178Y_T180E | 0.07 | 130
5 | D3H44 Fab heterodimer, H Q179R / L Q124E_Q160E_T178E | 0.16 | 110

molecular target: tissue factor (TF) (human) (UniProt P13726); test: SPR (ProteOn), Fab captured on anti-penta His, TF analyte, 1:1 fit
Sequence (P13726 33-251 limits assumed): as above

Row | Substance | Kd [pM] | change in KD vs wild type, -(log(KD design)-log(KD wt))
6 | H1L1 Fab heterodimer of LCCA set 9704 (D3H44 Fab; H: L143E_K145T_S188L; L: Q124R) | 210 | -0.12
7 | H1L1 Fab heterodimer of LCCA set 9987 (D3H44 Fab; H: L143E_K145T; L: Q124R_T178R) | 110 | 0.15
8 | H1L1 Fab heterodimer of LCCA set 9044 (D3H44 Fab; H: P175C_C233S; L: S162C_C214S) | 180 | –
9 | H1L1 Fab heterodimer of LCCA set 9351 (D3H44 Fab; H: L124R_D146N_Q179K; L: Q124E_V133G_S176D_T178E_T180E) | 200 | -0.1
10 | H1L1 Fab heterodimer of LCCA set 9364 (D3H44 Fab; H: L124R_D146N_Q179K; L: V133G_S176D_T180E) | 150 | 0.01
11 | H1L1 Fab heterodimer of LCCA set 9566 (D3H44 Fab; H: L124W_L143F; L: V133A) | 250 | -0.21
12 | H1L1 Fab heterodimer of LCCA set 9914 (D3H44 Fab; H: S188L_V190F; L: WT) | 150 | 0.01
13 | H1L1 Fab heterodimer of LCCA set 9070 (D3H44 Fab; H: F174G; L: S131T_S176F_T178Y) | 160 | 0
14 | H1L1 Fab heterodimer of LCCA set 9447 (D3H44 Fab; H: L124R_Q179K; L: V133G_S176D_T180E) | 280 | -0.26
15 | H1L1 Fab heterodimer of LCCA set 9911 (D3H44 Fab; H: S188L; L: WT) | 90 | 0.27
16 | H1L1 Fab heterodimer of LCCA set 9491 (D3H44 Fab; H: L124R_S186K; L: V133G_S176D_T180E) | 240 | -0.19
17 | H1L1 Fab heterodimer of LCCA set 9073 (D3H44 Fab; H: F174V; L: S131T_S176F_T178Y) | 140 | 0.04
18 | H1L1 Fab heterodimer of LCCA set 9175 (D3H44 Fab; H: L124E_L143D_K145M; L: Q124K_V133G_S176R) | 250 | -0.21
19 | H1L1 Fab heterodimer of LCCA set 9573 (D3H44 Fab; H: L143A_Q179K; L: Q124E_V133Y_T180E) | 270 | -0.23
20 | H1L1 Fab heterodimer of LCCA set 9732 (D3H44 Fab; H: L143K; L: Q124E_V133D_S176L) | 280 | -0.25
21 | H1L1 Fab heterodimer of LCCA set 9052 (D3H44 Fab; H: A139G_F174V_V190A; L: S131T_L135F_S176F_T178F) | 140 | 0.06
22 | H1L1 Fab heterodimer of LCCA set 9737 (D3H44 Fab; H: L143R; L: Q124E_V133E) | 200 | -0.09
23 | H1L1 Fab heterodimer of LCCA set 9213 (D3H44 Fab; H: L124E_L143D_K145T; L: Q124K_V133G_S176R) | 200 | -0.11
24 | H1L1 Fab heterodimer of LCCA set 9259 (D3H44 Fab; H: L124E_L143E_K145M; L: Q124K_V133G_S176R_T178K) | 240 | -0.19
25 | H1L1 Fab heterodimer of LCCA set 9906 (D3H44 Fab; H: S188G; L: S176L) | 110 | 0.14
